From patent US5622828, “High-affinity oligonucleotide ligands to secretory phospholipase A2 (sPLA2)” (Nexstar Pharmaceuticals, Inc.) come the findings set out here.

T1: secretory phospholipase A2 (sPLA2) (Homo sapiens, UniProt P14555 P14555:21-144)
T1 sequence: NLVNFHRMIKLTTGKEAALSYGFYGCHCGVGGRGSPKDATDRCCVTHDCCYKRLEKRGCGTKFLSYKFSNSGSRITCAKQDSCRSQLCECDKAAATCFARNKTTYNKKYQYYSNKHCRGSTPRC

B1: NN19.13 (ssRNA)
RNA: GGGAAAAGAAGACCGGCCGGCGCCAUAGCCGAGAUCCGAGGUGUUGAGACCAACCGAGAA
modifications: 2'-NH2 all C and U
B2: NS10 (ssRNA)
RNA: GGGAGGACGAUGCGGUGACAAAUGAGCAAGUAGCGAUAGAUGUGAUGGACAGAGACAGCCGGGGCCAGACGACUCGCCCGA
modifications: 2'-NH2 all C and U
B3: NS14 (ssRNA)
RNA: GGGAGGACGAUGCGGAAAUGUGUUAGUGAAUGAUUGAGAGAAGAUAGAUGAUGUUGAAGUCUGGCCAGACGACUCGCCCGA
modifications: 2'-NH2 all C and U
B4: NN40 (ssRNA)
RNA: GGGAAAAGCGAAUCAUACACAAGACCCCUUGAGCUCGUGACGCAGGAGGAGGGCCGAGGAGGAAAGUCGUCACAGCUCCGCCAGAGACCAACCGAGAA
modifications: 2'-NH2 all C and U
B5: NS13 (ssRNA)
RNA: GGGAGGACGAUGCGGUGAGCUUAGGAUAGGAGCAACAAGUAGAGUAGAGUGAUAACUAGGGUGGCCAGACGACUCGCCCGA
modifications: 2'-NH2 all C and U
B6: NS2 (ssRNA)
RNA: GGGAGGACGAUGCGGUAGUAACGGAUACUGAUCCGAGGUUAUAGUCACUAUAUCAUCCGCUGCGCCAGACGACUCGCCCGA
modifications: 2'-NH2 all C and U
B7: NS4 (ssRNA)
RNA: GGGAGGACGAUGCGGGUAGGGAUAAGCGAGUGUACAGCGAAUACGACUCGGAAUGCUUGGUGCGCCAGACGACUCGCCCGA
modifications: 2'-NH2 all C and U
B8: NN30 (ssRNA)
RNA: GGGAAAAGCGAAUCAUACACAAGAGCCAGCGAGUGUCGACAGUGUGGGUGGAAGUGACGGGAGGAUUGGAGACGCUCCGCCAGAGACCAACCGAGAA
modifications: 2'-NH2 all C and U
B9: NN19.14 (ssRNA)
RNA: GGGAAAAGAAGACCGGCCGGCGCCAUAGCCGAGAUCCGAGGUGUUGAACGAUCCGAGAA
modifications: 2'-NH2 all C and U
B10: NN1 (ssRNA)
RNA: GGGAAAAGCGAAUCAUACACAAGACGGCGAGCAUGCGGCGAGUGGAGGGGGACUGAUGGAGGGCGAGACCGUGUGCUCCGCCAGAGACCAACCGAGAA
modifications: 2'-NH2 all C and U
B11: NN22 (ssRNA)
RNA: B10 RNA with G49A
modifications: 2'-NH2 all C and U
B12: NN19.11 (ssRNA)
RNA: GGGAAAAGAAGACCGGCCGGCGCCAUAGCCGAGAUCCGAGGUGUUGAACGAUAGACCAACCGAGAA
modifications: 2'-NH2 all C and U
B13: NS1 (ssRNA)
RNA: GGGAGGACGAUGCGGAUAAGGAGGAGCAAGCGAGAAAUUGAGAAGUAACAAGAUCGACAUGGCCCCAGACGACUCGCCCGA
modifications: 2'-NH2 all C and U
B14: NS6 (ssRNA)
RNA: GGGAGGACGAUGCGGAACUAAAAGACAGAGAGAAAACGACAAUACGAAGUACAUAUAACCCUGGCCAGACGACUCGCCCGA
modifications: 2'-NH2 all C and U
B15: NS12 (ssRNA)
RNA: GGGAGGACGAUGCGGUGAAAGAGAAAGGUUGAGAUGAUUACAAGCGAAUUGGAUAAGUGUCUGGCCAGACGACUCGCCCGA
modifications: 2'-NH2 all C and U
B16: NS7 (ssRNA)
RNA: GGGAGGACGAUGCGGAGGAAAUGAAGUAGUGAGAGUAUAACAUGAUUAUGAAUACGUGAUGUGGCCAGACGACUCGCCCGA
modifications: 2'-NH2 all C and U

Positions count from the first letter of the chain named.

The series has as its target T1, secretory phospholipase A2 (sPLA2). The series can be described thus: filter; TBSC, 37 C. The following applies: tags: supplied by Eli Lilly. On the procedure: The nitrocellulose filter partitioning method was used as described in SELEX Patent Applications to determine the affinity of RNA ligands for sPLA_2 and for other promins. Filter discs (nitrocellulose/cellulose acetate mixed matrix, 0.45 µm pore size, Millipore) were placed on a vacuum manifold and washed with 5 ml of TBSC buffer under vacuum. Reaction mixtures, containing ^32P labeled RNA pools and sPLA_2, were incubated in TBSC for 5 minutes at 37° C., filtered, and then immediately washed with 5 ml TBSC. The filters were air-dried and counted in a Beckman liquid scintillation counter without fluor.
The dissociation constants for representative members of families I–VI, orphan and other ligands were determined by nitrocellulose filter binding experiments and are listed in Table III. Unlike random RNA, all tested ligands from the 2'OH SELEXes bound biphasically.
With B1, binding was put at a Kd of 2.2 nM.

For the molecule GGGAAAAGAAGACCGGCCGGCGCCAUAGCCGAGAUCCGAGGUGUUGA (ssRNA, 2'-NH2 all C and U) [NN19.4], the Kd stood at 7.3 nM.

In turn, B2 had an equilibrium dissociation constant (Kd) of 22 nM.

With B3, the dissociation constant Kd worked out at 12 nM.

As to B4, the dissociation constant (Kd) is 31 nM.

B5 had a Kd of 15 nM.

B6 came in with a Kd of 22 nM.

Molecule B7 had an equilibrium dissociation constant (Kd) of 24 nM. The Kd values of the last two molecules are within 1.5-fold of each other.

As for B8, the Kd was 23 nM.

For B9, the equilibrium dissociation constant (Kd) is 1 nM.

With B10, the Kd was found to be 21 nM. This Kd lies about 21-fold higher than the previous one.

For B11, the Kd came to 36 nM.

B12 came in with a dissociation constant (Kd) of 0.5 nM. This Kd is about 72-fold lower than that of the molecule before.

On to B13, for which binding was put at a Kd of 42 nM. This Kd is about 84-fold higher than that of the molecule before.

B14 returned a Kd of 28 nM.

As to B15, binding was characterised by a dissociation constant (Kd) of 40 nM. This Kd and that of the molecule before are within 1.5-fold of each other.

B16 showed a Kd of 18 nM.

One may read the Kd as the equilibrium constant for the complex coming apart. Low values mean higher affinity, high ones lower affinity.
